# From US20110311544A1
# Assays:
# [1] = biological target: CD71 (transferrin receptor) on human tumour cell lines (human) (UniProt P02786); test: flow cytometry, biotin-OKT9 on A375 cells after pre-incubation with control ascites NS1 at 4° C. (no competitor)
# [2] = biological target: CD71 (transferrin receptor) on human tumour cell lines (human) (UniProt P02786); test: flow cytometry, biotin-OKT9 on A375 cells after pre-incubation with control ascites NS1 at 37° C. (no competitor)
# [3] = biological target: CD71 (transferrin receptor) on human tumour cell lines (human) (UniProt P02786); test: quantitative flow cytometry on A375 cells, background control, medium FCS, with Tf-Fe
# [4] = biological target: CD71 (transferrin receptor) on human tumour cell lines (human) (UniProt P02786); test: quantitative flow cytometry on A375 cells, background control, medium human AB serum, with Tf-Fe
# [5] = biological target: CD71 (transferrin receptor) on human tumour cell lines (human) (UniProt P02786); test: quantitative flow cytometry on A375 cells, background control, medium human AB serum, no Tf-Fe
# [6] = biological target: CD71 (transferrin receptor) on human tumour cell lines (human) (UniProt P02786); test: quantitative flow cytometry on A375 cells, background control, medium FCS, no Tf-Fe
# Chain of UniProt P02786 (P02786 whole entry): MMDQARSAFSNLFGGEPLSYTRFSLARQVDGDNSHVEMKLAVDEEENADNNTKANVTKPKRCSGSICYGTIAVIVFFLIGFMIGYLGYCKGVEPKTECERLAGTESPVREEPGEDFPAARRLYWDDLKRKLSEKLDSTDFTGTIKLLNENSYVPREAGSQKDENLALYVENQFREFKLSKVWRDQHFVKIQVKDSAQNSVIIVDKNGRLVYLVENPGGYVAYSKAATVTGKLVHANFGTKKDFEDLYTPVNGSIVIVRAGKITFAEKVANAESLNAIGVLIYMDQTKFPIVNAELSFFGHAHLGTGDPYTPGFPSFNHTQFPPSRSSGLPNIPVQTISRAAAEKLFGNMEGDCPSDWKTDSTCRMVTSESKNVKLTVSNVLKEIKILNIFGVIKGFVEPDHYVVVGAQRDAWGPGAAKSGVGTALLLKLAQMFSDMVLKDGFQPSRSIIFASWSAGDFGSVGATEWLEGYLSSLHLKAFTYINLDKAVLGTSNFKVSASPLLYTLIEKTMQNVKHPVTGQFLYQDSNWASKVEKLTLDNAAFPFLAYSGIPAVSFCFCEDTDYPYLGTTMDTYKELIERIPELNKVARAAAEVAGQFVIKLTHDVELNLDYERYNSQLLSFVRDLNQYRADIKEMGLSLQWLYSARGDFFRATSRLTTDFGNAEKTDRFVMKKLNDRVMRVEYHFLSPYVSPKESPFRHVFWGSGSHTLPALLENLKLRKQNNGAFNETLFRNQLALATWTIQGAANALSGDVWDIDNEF
Mean Fluorescence intensity [1],Mean Fluorescence intensity [2],Sites [3],Sites [4],Sites [5],Sites [6],Substance
6.53,8.84,,,,,biotin-labeled anti-CD71 mAb OKT9 (antibody)
,,3310 sites,5790 sites,5790 sites,3250 sites,control ascites NS1
